Positions count from the first letter of the chain named. Where “and” joins values, the source holds several entries; their conditions need not be identical. Equal entries are not always repeated.

For assay [1], the target named is T1, Gal9 (Galectin-9) as used in Examples 3 to 5 (Homo sapiens (Human), UniProt O00182 1-323). As to the kind of experiment: Tim3 blocking Assay: binding (%) of Gal9 to TIM3 over antibody concentration; R2 printed 0,9956; no unit in the table, nM from the axis 'Antibody [nM]'.
Assay [2] concerns the target T1, Gal9 (Galectin-9) as used in Examples 3 …. As to the kind of experiment: CD44 blocking Assay: binding (%) of Gal9 to CD44 over antibody concentration; R2 printed 0,9790; no unit in the table, nM from the axis 'Antibody [nM]'.
In assay [3] the target is T2, recombinant human Galectin-9 (human, UniProt O00182-2 1-323, limits assumed).
T2 construct: also called hGal9M; human Gal9
As to the kind of experiment: binding to recombinant human Gal-9, OD read-out over antibody concentration (nM); table under the curves.

Assay [4] deals with T3, recombinant mouse Galectin-9 (mouse, UniProt O08573-2 1-322, limits assumed).
T3 construct: also called mGal9M; mouse Gal9
The assay is described as follows: binding to recombinant mouse Gal-9, OD read-out over antibody concentration (nM); table under the curves.

Assay [5] has as its target T1, Gal9 (Galectin-9) as used in Examples 3 …. The assay is described as follows: Tim3 blocking Assay: binding (%) of Gal9 to TIM3 over antibody concentration; R2 printed 0,9756; no unit in the table, nM from the axis 'Antibody [nM]'.
Assay [6] concerns the target T3, recombinant mouse Galectin-9. As to the kind of experiment: BLI (Octet). As for the experimental part:
(§1) Antibody binding affinity was measured using the commercially available Octet system from ForteBio (Creative Biolabs). According to the Creative Biolabs description, the Octet platform is based on bio-layer interferometry (BLI) technology that utilizes a whole set of system including instruments, biosensors, reagents and assay kits to support the evaluation of biomolecular interactions in 96- or 384-well microplates. Octet system uses Dip-and-Read assay mode to avoid the need of microfluidics, and enables the real-time, label-free analysis of affinity as well as kinetics. There are three biosensor-based assay orientations that can be used to explore antibody interaction: tandem blocking, premix blocking and classical sandwich. Compared to Biacore, Octet's dip-and-read assay allows longer analyte-binding steps and […] the rebinding of analyte to the ligand-coated sensors. Meanwhile, faster association time consumes less sample, which saves your precious proteins.

The target of assay [7] is T2, recombinant human Galectin-9. The assay is described as follows: BLI (Octet). As for the experimental part: as §1
On the technique in general: BLI is a label-free optical method that tracks binding on a fibre tip over time.

In assay [8] the target is T1, Gal9 (Galectin-9) as used in Examples 3 …. As to the kind of experiment: CD44 blocking Assay: binding (%) of Gal9 to CD44 over antibody concentration; ambiguous fit marked '~', R2 printed 0,9720; no unit in the table, nM from the axis 'Antibody [nM]'.
For assay [9] the target is unchanged. As to the kind of experiment: Tim3 blocking Assay: binding (%) of Gal9 to TIM3 over antibody concentration; R2 printed 0,9960; no unit in the table, nM from the axis 'Antibody [nM]'.
Assay [10] has the same target. As to the kind of experiment: CD44 blocking Assay: binding (%) of Gal9 to CD44 over antibody concentration; ambiguous fit marked '~', R2 printed 0,9183; no unit in the table, nM from the axis 'Antibody [nM]'.
The target is the same in assay [11]. The assay is described as follows: Tim3 blocking Assay: binding (%) of Gal9 to TIM3 over antibody concentration; ambiguous fit marked '~', R2 printed 0,9819; no unit in the table, nM from the axis 'Antibody [nM]'.
For assay [12] the target is unchanged. As to the kind of experiment: CD44 blocking Assay: binding (%) of Gal9 to CD44 over antibody concentration; very poor fit, R2 printed 0,07344; no unit in the table, nM from the axis 'Antibody [nM]'.
Assay [13] shares this target. The assay is described as follows: Tim3 blocking Assay: binding (%) of Gal9 to TIM3 over antibody concentration; ambiguous fit marked '~', R2 printed 0,8826; no unit in the table, nM from the axis 'Antibody [nM]'.
For assay [14] the target is unchanged. The assay is described as follows: CD44 blocking Assay: binding (%) of Gal9 to CD44 over antibody concentration; ambiguous fit marked '~', R2 printed 0,7386; no unit in the table, nM from the axis 'Antibody [nM]'.
The target is the same in assay [15]. As to the kind of experiment: Tim3 blocking Assay: binding (%) of Gal9 to TIM3 over antibody concentration; ambiguous fit marked '~', R2 printed 0,8078; no unit in the table, nM from the axis 'Antibody [nM]'.

T3 sequence (O08573 other isoform, or with tags, fused parts or gaps limits assumed): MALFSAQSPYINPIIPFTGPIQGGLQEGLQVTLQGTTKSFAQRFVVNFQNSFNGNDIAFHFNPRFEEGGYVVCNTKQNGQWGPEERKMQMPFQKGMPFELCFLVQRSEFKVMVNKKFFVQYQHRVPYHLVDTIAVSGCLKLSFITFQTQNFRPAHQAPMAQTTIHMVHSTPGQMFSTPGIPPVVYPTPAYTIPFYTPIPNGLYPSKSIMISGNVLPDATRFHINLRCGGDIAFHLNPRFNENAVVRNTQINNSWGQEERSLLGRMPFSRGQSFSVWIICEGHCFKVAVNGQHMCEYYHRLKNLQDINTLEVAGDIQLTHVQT
T2 sequence (O00182 other isoform, or with tags, fused parts or gaps limits assumed): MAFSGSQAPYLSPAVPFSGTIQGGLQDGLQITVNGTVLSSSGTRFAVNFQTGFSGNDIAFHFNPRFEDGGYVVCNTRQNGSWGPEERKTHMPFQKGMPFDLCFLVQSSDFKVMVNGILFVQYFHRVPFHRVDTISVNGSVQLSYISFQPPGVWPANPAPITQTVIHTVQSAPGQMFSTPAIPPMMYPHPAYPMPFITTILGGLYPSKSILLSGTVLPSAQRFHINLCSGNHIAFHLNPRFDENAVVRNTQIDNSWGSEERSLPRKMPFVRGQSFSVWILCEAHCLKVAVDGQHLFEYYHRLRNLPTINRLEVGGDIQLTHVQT
T1 sequence (O00182 other isoform, or with tags, fused parts or gaps limits assumed): as above

B1: HFB9-2hz14-hG1AA (antibody, human IgG1, V domains shown)
VH: EVQLVQSGAEVKKPGESLKISCKGSGYTFTEYTIHWVRQMPGKGLEWMGWFYPGSGSTEYSPSFQGQVTISADKSISTAYLQWSSLKASDTAMYYCERHGGYDGFDYWGQGTTVTVSS
VL: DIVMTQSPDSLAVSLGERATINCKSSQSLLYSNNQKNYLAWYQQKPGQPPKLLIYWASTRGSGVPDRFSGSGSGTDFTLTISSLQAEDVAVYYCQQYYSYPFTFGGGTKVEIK
notes: Humanized variant of HFB9-2; also called 2h14
As to B1, the IC50 (usually the concentration that inhibits the measured activity by half) in [1] was determined as 37.1 nM; in assay [2], 48.7 nM. Further, the EC50 – broadly, the concentration at which the effect is half-maximal – in assay [3] was found to be 0.144 nM.

B2: HFB9-2hz13-hG1AA (antibody, human IgG1, V domains shown)
VH: QVQLVQSGAEVKKPGASVKVSCKASGYTFTEYTIHWVRQAPGQGLEWMGWFYPGSGSTEYAQKFQGRVTMTADTSTSTVYMELSSLRSEDTAVYYCERHGGYDGFDYWGQGTTVTVSS
VL: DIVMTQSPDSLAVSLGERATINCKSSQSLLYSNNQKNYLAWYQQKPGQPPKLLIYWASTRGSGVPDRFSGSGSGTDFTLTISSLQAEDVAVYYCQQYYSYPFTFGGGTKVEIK
notes: Humanized variant of HFB9-2
In the case of B2, the EC50 turned out to be 0.496 nM in assay [4] and 0.128 nM in assay [3]. In addition, in [5], the IC50 stood at 51.4 nM.

B3: HFB9-2hz12-hG1AA (antibody, V domains shown)
VH: B2 VH with A16S, T58A, M70I, T74E, V79A
VL: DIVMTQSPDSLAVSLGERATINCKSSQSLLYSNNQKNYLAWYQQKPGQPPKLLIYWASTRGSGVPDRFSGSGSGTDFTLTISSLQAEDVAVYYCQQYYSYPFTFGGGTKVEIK
notes: humanized variant of HFB9-2
B3: the EC50 in assay [3] was 0.57 nM.

B4: HFB9-2hz11-hG1AA (antibody, IgG1, V domains shown)
VH: B2 VH with T76I, V79A, S85R, E89D, Y95F
VL: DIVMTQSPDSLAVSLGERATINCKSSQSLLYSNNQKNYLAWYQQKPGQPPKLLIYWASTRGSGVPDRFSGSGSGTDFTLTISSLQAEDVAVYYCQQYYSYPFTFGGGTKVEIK
notes: Humanized variant of HFB9-2; also called HFB9-2hz11-hG1AA MF20191024
As to B4, the koff (commonly the first-order rate constant of dissociation) in assay [6] was 0.000462 s⁻¹ and 0.000606 s⁻¹; in [7] it was 0.000352 s⁻¹ and 0.000179 s⁻¹. In addition, the kon (in general, the rate constant with which the complex forms) was 402000 M⁻¹ s⁻¹ and 166000 M⁻¹ s⁻¹ in assay [6]; 72800 M⁻¹ s⁻¹ and 91400 M⁻¹ s⁻¹ in [7]. Moreover, the Kd (as a rule, the constant that tells how readily two partners part at equilibrium) in assay [7] is 4.84 nM and 1.96 nM. For the same molecule, the 50% effective concentration (EC50) in assay [4] is 0.533 nM; in assay [3], 0.117 nM. In addition, the figures for the IC50 in [8] and in assay [9] were about 39.6 nM and 25.3 nM, respectively.

B5: HFB9-1hz2-hG1AA (antibody, human IgG1, V domains shown)
VH: QVQLVQSGAEVKKPGSSVKVSCKASGYTFTDYTIHWVRQAPGQGLEWMGWFYPGSHSIKYAQKFQGRVTITADKSTSTAYMELSSLRSEDTAVYFCTRHGGYDGFDYWGQGTLVTVSS
VL: DIVMTQSPDSLAVSLGERATINCKSSQSLFYSTNQKNYLAWYQQKPGQPPKLLIYWASTRESGVPDRFSGSGSGTDFTLTISSLQAEDVAVYYCQQYYYFPYTFGQGTKLEIK
notes: Humanized variant of HFB9-1
As for B5, the half-maximal effective concentration (EC50) in [4] was determined as 0.828 nM; in [3], 0.15 nM. The IC50 in [10] is about 63.1 nM; in assay [11], about 59.8 nM.

B6: HFB9-1hz3-hG1AA (antibody, human IgG1, V domains shown)
VH: B5 VH with F95Y
VL: B5 VL
notes: Humanized variant of HFB9-1
On to B6, for which the EC50 in assay [4] is 0.98 nM; in [3], 0.142 nM. Further, the figures for the IC50 in [12] and in [13] were 0.0616 nM and about 183 nM, respectively.

B7: HFB9-1hz4-hG1AA (antibody, V domains shown)
VH: B5 VH with F95Y, T97A
VL: B5 VL
notes: humanized variant of HFB9-1
As to B7, in assay [3], the EC50 came to 1.84 nM.

B8: HFB9-1hz1-hG1AA (antibody, human IgG1, V domains shown)
VH: B5 VH with S16A, I70M, K74T, T76I, S85R, E89D
VL: B5 VL
notes: Humanized variant of HFB9-1
B8: the IC50 in assay [14] was about 255 nM; in [15], about 52.1 nM. Also, in assay [3], the EC50 worked out at 0.153 nM.
